# Results from PMC3545058.
# What was measured:
# [1] = molecular target: EhRGS-RhoGEF (Entamoeba histolytica); assay: SPR
# [2] = molecular target: GST-EhGα1 (Entamoeba histolytica); assay: SPR
Substance,Kd [1] [µM],Kd [2] [µM]
EhGα1(Q189L) (natural protein),110,
EhRacC(Q65L) (from UniProt Q24816 1-194) (natural protein),34,
EhGα1 (natural protein),5.2,
EhRGS-RhoGEF (natural protein),,5.7
